For one molecule, Kd results are on record in publication PMC7949108, “Medulloblastoma-associated mutations in the DEAD-box RNA helicase DDX3X/DED1 cause specific defects in translation”.

Some targets named below: Ded1 wild-type (Saccharomyces cerevisiae, UniProt P06634 1-604); Ded1-S371F (Saccharomyces cerevisiae, UniProt P06634 1-604, S371F); Ded1-G488A (Saccharomyces cerevisiae, UniProt P06634 1-604, G488A); Ded1-M339I (Saccharomyces cerevisiae, UniProt P06634 1-604, M339I).
Holding throughout (assay): fluorescence anisotropy; 2 mM ADP-BeFx; 20 mM HEPES pH 7.5, 40 mM NaCl, 20% glycerol, 2 mM ADP-BeFx; 2 nM RNA, 0-400 nM protein, 30 min; temperature not stated
What all share (settings): protein: recombinant; tags: His (pET28a); label: 5' 6-carboxyfluorescein; single strand
(Fluorescence polarisation rises when a labelled molecule tumbles more slowly, as on binding a larger partner.)

Sequence of Ded1-M339I (P06634 whole entry M339I): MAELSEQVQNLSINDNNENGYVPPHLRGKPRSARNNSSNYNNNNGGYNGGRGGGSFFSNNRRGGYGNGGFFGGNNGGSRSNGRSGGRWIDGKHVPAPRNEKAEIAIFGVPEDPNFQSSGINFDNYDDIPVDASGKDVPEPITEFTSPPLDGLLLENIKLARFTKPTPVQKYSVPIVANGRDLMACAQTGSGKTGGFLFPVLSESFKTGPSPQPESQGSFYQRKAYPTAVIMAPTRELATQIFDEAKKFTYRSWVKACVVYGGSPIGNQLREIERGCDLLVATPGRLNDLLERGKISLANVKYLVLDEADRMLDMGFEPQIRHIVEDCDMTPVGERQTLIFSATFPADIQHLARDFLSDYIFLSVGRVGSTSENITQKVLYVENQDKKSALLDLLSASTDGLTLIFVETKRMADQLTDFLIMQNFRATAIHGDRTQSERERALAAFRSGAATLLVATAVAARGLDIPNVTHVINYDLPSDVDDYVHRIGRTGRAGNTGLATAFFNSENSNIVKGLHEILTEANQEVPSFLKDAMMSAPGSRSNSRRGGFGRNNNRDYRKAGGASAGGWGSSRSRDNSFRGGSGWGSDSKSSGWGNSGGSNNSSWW
Sequence of Ded1-S371F (P06634 whole entry S371F): as the sequence (P06634 whole entry M339I) above, with I339M, S371F counted along it
Sequence of Ded1 wild-type (P06634 whole entry): as the sequence (P06634 whole entry M339I) above, with I339M counted along it
Sequence of Ded1-G488A (P06634 whole entry G488A): as the sequence (P06634 whole entry M339I) above, with I339M, G488A counted along it

B1: 16-mer RNA oligomer (ssRNA)
RNA: AGCACCGUAAAGACGC
Take B1: the Kd (in general, the constant that tells how readily two partners part at equilibrium) in the data set with Ded1 wild-type turned out to be 13 nM; in the data set with Ded1-S371F it was 11 nM; with Ded1-G488A, 78 nM; with Ded1-M339I, 110 nM.
